Measured values published in paper PMC7966918 (Cell Research, 2021).

B1: P2B-1A10 (full-length IgG) (antibody, V domains shown)
VH: EVQLVESGGGLIQPGGSLRLSCAASGFTVSSNYMSWVRQAPGKGLEWVSVIYSGGSTYYADSVKGRFTISRDNSKNTLYLQMNSLRAEDTAVYYCAREGPKSITGTAFDIWGQGTIVTVSS
VL: DIQMTQSPSSLSASVGDRVTITCQASQDISNYFNWYQQKPGKAPKLLIYDASNLETGVPSRFSGSGSGTDFTFTISSLQPEDIATYYCQQYDNLPMYTFGQGTKLEIK
B2: P5A-2G9 (full-length IgG) (antibody, V domains shown)
VH: QVQLVESGGGVVQPGRSLRLSCAASGFTFSSYGMHWVRQAPGKGLEWVAVIWYDGSNKYYADSVKGRFTISRDNSKNTLYLQMNSLRAEDTAVYYCARWFHTGGYFDYWGQGTLVTVSS
VL: QPVLTQPPSSSASPGESARLTCTLPSDINVSSYNIYWYQQKPGSPPRYLLYYYSDSDKGQGSGVPSRFSGSKDASANTGILLISGLQSEDEADYYCMIWPSNALYVFGTGTKVTVL

Molecular target: T1, SARS-CoV-2 S protein extracellular domain (S-ECD, 1–1208 aa) (SARS-CoV-2, Wuhan-Hu-1 (GenBank …, UniProt P0DTC2, proline substitution at residue 986 | proline substitution at residue 987 | …))
T1 construct: also called S trimer; trimeric S protein
Assay: cryo-EM structure
Settings: both partners purified

Binder | binding result
B1 | binds
B2 | binds
